Data on two substances can be found in PMC7480081.

The data set has as its target T1, Csa3b (Sulfolobus islandicus REY15A) (UniProt F0NH47).
T1 sequence: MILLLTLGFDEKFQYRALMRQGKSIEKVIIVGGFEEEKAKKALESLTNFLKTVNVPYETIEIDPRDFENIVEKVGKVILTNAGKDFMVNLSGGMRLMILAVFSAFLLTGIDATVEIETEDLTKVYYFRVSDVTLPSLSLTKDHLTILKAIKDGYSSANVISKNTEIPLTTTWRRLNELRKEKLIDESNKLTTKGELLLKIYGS
Briefly: LSPR. Particulars: DNA immobilized, LSPR (OpenSPR, COOH chip, 20 uL/min, 5 min, 1:1 fit; running buffer not stated), DNase I footprinting: 400 ng probe in 40 uL, 30 min at 30 C, DNase I 1 min at ….

For csa1 promoter, full-length (LSPR), the Kd reads like this: (20 uM 5'-CAAAA-3') 0.3 µM; (no CAAAA) 4.24 µM. With cmr4 (cmr4-alpha) promoter (LSPR), the Kd is 0.0172 µM.

What is called Kd is the equilibrium constant for the complex coming apart. A lower Kd goes with higher affinity.
